B1: Piscidin 2 (Morone saxatilis x Morone chrysops (hybrid striped bass)) (peptide)
chain: FFHHIFRGIVHVGKTIHKLVTG
B2: Piscidin 1 (Morone saxatilis x Morone chrysops (hybrid striped bass)) (peptide)
chain: FFHHIFRGIVHVGKTIHRLVTG
B3: Piscidin 3 (Morone saxatilis x Morone chrysops (hybrid striped bass)) (peptide)
chain: FIHHIFRGIVHAGRSIGRFLTG

Legend:
Assay in all cases: potentiometry
Settings in all cases: 298 K, stated as 40 mM (SDS), 4 mM HClO4, no buffer
[1] = target: Nterm1 (position 1, -----FFHHIF)
[2] = target: Lys14 (position 14, …)
[3] = target: Nterm1 (position 1, -----FIHHIF)
[4] = 1:1 Zn(II) complex (Zn bound by three His imidazoles; N-terminus and Lys not coordinated)

Protein	pKa [1, 4]	pKa ([1]; metal-free peptide)	pKa ([2]; 1:1 Cu(II) complex, ATCUN 4N square-planar binding (N-terminal amine, two amides, His3 imidazole))	pKa [2, 4]	pKa ([2]; metal-free peptide)	pKa [3, 4]	pKa ([3]; metal-free peptide)
B1	8.04	8.82					
B2	7.88	8.36	9.82	10.09	10.02		
B3						7.29	8.26
